{
  "source": "paper PMC5519985",
  "about": "(Nature Communications, 2017)",
  "key": {"[1]": {"molecular_target": "SNAPf-IL-13Rα1-TM (IL-13Rα1 truncated after the transmembrane domain)", "experiment": "single molecule co-localization and co-tracking (dual-colour TIRF microscopy); ^DY547IL-4Rα-TM and ^DY647IL-13Rα1-TM reconstituted into polymer-supported membranes (PSM); ligand from 10 pM up to 50 μM, 5 min equilibration; equilibrium model fitted to the dimerization curves"}, "[2]": {"molecular_target": "HaloTag-IL-13Rα1 (UniProt P78552)", "experiment": "particle image cross-correlation (PICCS) of single molecule localizations on live cells; HeLa cells co-expressing ^DY647IL-4Rα and ^TMRIL-13Rα1, without and with ligand; correlated fraction α; effective 2D constant by the law of mass action from α and the surface concentrations corrected for the degree of labelling"}, "[3]": {"molecular_target": "IL-13Rα1 (Homo sapiens) (UniProt P78552)", "details": "cited from earlier work"}, "[4]": {"molecular_target": "IL-4Rα (Homo sapiens) (UniProt P24394)", "details": "cited from earlier work"}, "[5]": {"molecular_target": "T1, IL-4Rα-EC/IL-4D binary complex on the SSM (UniProt P05112 25-153; P24394 26-232, H59Y | K84D, CoA-ATTO 488 on the ybbR-tag)", "T1 construct": "interleukin-4; IL-4Rα, ectodomain; Chains as m2 and m10; source: formed on the solid-supported membrane from m2 and m10; not shown: ybbR-tag, N-terminal, kept; His10, C-terminal, kept", "T1 sequence (looked up) 1": "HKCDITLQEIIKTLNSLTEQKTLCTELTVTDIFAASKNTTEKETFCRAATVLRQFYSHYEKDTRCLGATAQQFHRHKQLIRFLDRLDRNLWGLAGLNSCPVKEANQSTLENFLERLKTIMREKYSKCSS", "T1 sequence (looked up) 2": "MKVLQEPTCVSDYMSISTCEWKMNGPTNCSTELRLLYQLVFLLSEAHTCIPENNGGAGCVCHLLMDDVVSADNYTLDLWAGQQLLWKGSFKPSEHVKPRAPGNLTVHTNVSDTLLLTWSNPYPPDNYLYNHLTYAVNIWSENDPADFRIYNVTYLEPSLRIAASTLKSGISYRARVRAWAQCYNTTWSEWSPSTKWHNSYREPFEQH", "experiment": "TIRFS-RIf (total internal reflection fluorescence spectroscopy with reflectance interference); SSM with IL-4Rα-EC and IL-13Rα1-EC; dissociation of ^AT488IL-4D while free IL-13Rα1-EC is blocked by injection of IL-13 (Supplementary Fig. 7)", "details": "both partners purified"}},
  "data": [
    {"molecule": "IL-4/^DY547IL-4Rα-TM binary complex in the PSM (from UniProt P05112 25-153)", "values": [
      {"measurement": "2D equilibrium dissociation constant (molecules μm^−2)", "setting": "[1]", "value": 1.6}
    ]},
    {"molecule": "IL-4/^DY647IL-4Rα binary complex in the plasma membrane of HeLa cells (from UniProt P05112 25-153; P24394 26-825)", "values": [
      {"measurement": "correlated fraction α (PICCS)", "setting": "[2]", "value": 11, "unit": "%"},
      {"measurement": "effective 2D equilibrium dissociation constant (molecules μm^−2)", "setting": "[2]", "value": 0.1}
    ]},
    {"molecule": "IL-4 (from UniProt P05112)", "values": [
      {"measurement": "Kd", "setting": "[3]", "value": 2500, "unit": "nM"}
    ]},
    {"molecule": "IL-13/IL-13Rα1-EC complex (from UniProt P35225)", "values": [
      {"measurement": "Kd", "setting": "[4]", "value": 15, "unit": "nM"}
    ]},
    {"molecule": "IL-13Rα1-EC (ectodomain of IL-13Rα1 with C-terminal decahistidine tag) (domain or fragment, UniProt P78552 22-343, looked up, CoA-Alexa Fluor 568 on the ybbR-tag in the FRET experiments (^AF568IL-13Rα1-EC); else unlabelled) GGGGAAPTETQPPVTNLSVSVENLCTVIWTWNPPEGASSNCSLWYFSHFGDKQDKKIAPETRRSIEVPLNERICLQVGSQCSTNESEKPSILVEKCISPPEGDPESAVTELQCIWHNLSYMKCSWLPGRNTSPDTNYTLYYWHRSLEKIHQCENIFREGQYFGCSFDLTKVKDSSFEQHSVQIMVKDNAGKIKPSFNIVPLTSRVKPDPPHIKNLSFHNDDLYVQWENPQNFISRCLFYEVEVNNSQTETHNVFYVQEAKCENPEFERNVENTSCFMVPGVLPDTLNTVRIRVKTNKLCYEDDKLWSNWSQEMSIGKKRNST", "values": [
      {"measurement": "binding result", "setting": "[5]", "value": "binds"}
    ]}
  ]
}
